Test results from US20240035010, “COMPOSITIONS COMPRISING A VARIANT POLYPEPTIDE AND USES THEREOF” (Arbor Biotechnologies, Inc., published 2024).
Numbering of substitutions follows the chain as printed.

How the values were obtained:
[1] = biological target: T1, variant nuclease E736G combination (P14R, D32R, I61R, E311R, E736G); experiment: cell_activity; PAM 5'-TTTG-3'; conditions: tags: pcDNA3.1 expression
T1 chain: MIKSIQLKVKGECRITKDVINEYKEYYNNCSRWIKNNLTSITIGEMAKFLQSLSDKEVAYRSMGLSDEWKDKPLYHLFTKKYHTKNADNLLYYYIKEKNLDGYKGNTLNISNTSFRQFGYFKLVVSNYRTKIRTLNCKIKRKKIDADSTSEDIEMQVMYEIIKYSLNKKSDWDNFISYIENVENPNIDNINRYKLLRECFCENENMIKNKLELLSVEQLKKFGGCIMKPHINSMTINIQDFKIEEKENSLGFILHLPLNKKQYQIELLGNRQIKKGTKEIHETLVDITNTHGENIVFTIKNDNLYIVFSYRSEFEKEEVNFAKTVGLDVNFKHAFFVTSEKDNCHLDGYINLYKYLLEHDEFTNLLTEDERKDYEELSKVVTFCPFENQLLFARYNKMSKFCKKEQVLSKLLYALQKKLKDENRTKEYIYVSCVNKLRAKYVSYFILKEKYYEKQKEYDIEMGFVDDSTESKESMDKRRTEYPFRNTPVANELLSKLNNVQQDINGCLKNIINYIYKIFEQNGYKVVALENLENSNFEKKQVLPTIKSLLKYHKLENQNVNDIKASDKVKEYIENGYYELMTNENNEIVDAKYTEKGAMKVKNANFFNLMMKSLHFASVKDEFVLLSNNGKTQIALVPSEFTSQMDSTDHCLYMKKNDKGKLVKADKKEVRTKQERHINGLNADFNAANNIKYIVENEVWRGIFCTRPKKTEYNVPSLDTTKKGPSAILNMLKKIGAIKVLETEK
Summary of the method: (§1)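 HEK293T cells were lipofected with nuclease plasmid (pcDNA3.1 backbone) plus RNA guide plasmid, with guide omitted in negative controls. After ~72 h cells were lysed in QuickExtract and % indels were derived from NGS reads, averaged over two bioreplicates and two technical replicates.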

[2] = biological target: T2, variant nuclease T338G combination (P14R, D32R, I61R, E311R, T338G); experiment: cell_activity; PAM 5'-TTTG-3'; conditions: tags: pcDNA3.1 expression
T2 chain: T1 chain with T338G, G736E
Summary of the method: as §1

B1: AAVS1 crRNA ; AAVS1 target (ssRNA ; dsDNA)
RNA: CUUGUUGUAUAUGUCCUUUUAUAGGUAUUAAACAACUGAGAAUGGUGCGUCCUAGG
DNA 1: TGAGAATGGTGCGTCCTAGG
DNA 2: CCTAGGACGCACCATTCTCA
For B1, the indel activity [1] was 5.28 fold of WT and the indel activity [2] was 5.93 fold of WT.
